Assay results taken from US6703489 (YALE UNIVERSITY, dated 2004).

B1: Drosophila Serrate, full-length (expression construct Ser-mtn), expressed on Drosophila S2 cells (ligand)
chain: GNFELEILEISNTNSHLLNGYCCGMPAELRATKTIGCSPCTTAFRLCLKEYQTTEQGASISTGCSFGNATTKILGGSSFVLSDPGVGAIVLPFTFRWTKSFTLILQALDMYNTSYPDAERLIEETSYSGVILPSPEWKTLDHIGRNARITYRVRVQCAVTYYNTTCTTFCRPRDDQFGHYACGSEGQKLCLNGWQGVNCEEAICKAGCDPVHGKCDRPGECECRPGWRGPLCNECMVYPGCKHGSCNGSAWKCVCDTNWGGILCDQDLNFCGTHEPCKHGGTCENTAPDKYRCTCAEGLSGEQCEIVEHPCATRPCRNGGTCTLKTSNRTQAQVYRTSHGRSNMGRPVRRSSSMRSLDHLRPEGQALNGSSSSGLVSLGSLQLQQQLAPDFTCDCAAGWTGPTCEINIDECAGGPCEHGGTCIDLIGGFRCECPPEWHGDVCQVDVNECEAPHSAGIAANALLTTTATAIIGSNLSSTALLAALTSAVASTSLAIGPCINAKECRNQPGSFACICKEGWGGVTCAENLDDCVGQCRNGATCIDLVNDYRCACASGFTGRDCETDIDECATSPCRNGGECVDMVGKFNCICPLGYSGSLCEEAKENCTPSPCLEGHCLNTPEGYYCHCPPDRAGKHCEQLRPLCSQPPCNEGCFANVSLATSATTTTTTTTTATTTRKMAKPSGLPCSGHGSCEMSDVGTFCKCHVGHTGTFCEHNLNECSPNPCRNGGICLDGDGDFTCECMSGWTGKRCSERATGCYAGQCQNGGTCMPGAPDKALQPHCRCAPGWTGLFCAEAIDQCRGQPCHNGGTCESGAGWFRCVCAQGFSGPDCRINVNECSPQPCQGGATCIDGIGGYSCICPPGRHGLRCEILLSDPKSACQNASNTISPYTALNRSQNWLDIALTGRTEDDENCNACVCENGTSRCTNLWCGLPNCYKVDPLSKSSNLSGVCKQHEVCVPALSETCLSSPCNVRGDCRALEPSRRVAPPRLPAKSSCWPNQAVVNENCARLTILLALERVGKGASVEGLCSLVRVLLAAQLIKKPASTFGQDPGMLMVLCDLKTGTNDTVELTVSSSKLNDPQLPVAVGLLGELLSSRQLNGIQRRKELELQHAKLAALTSIVEVKLETARVADGSGHSLLIGVLCGVFIVLVGFSVFISLYWKQRLAYRTSSGMNLTPSLDALRHEEEKSNNLQNEENLRRYTNPLKGSTSSLRAATGMELSLNPAPELAASAASSSALHRSQPLFPPCDFERELDSSTGLKQAHKRSSQILLHKTQNSDMRKNTVGSLDSPRKDFGKRSINCKSMPPSSGDEGSDVLATTVMV
notes: also called full-length Serrate

Legend:
[1] = target: the molecule itself; assay: cell aggregation assay, S2 cells
[2] = target: B1; assay: cell aggregation assay, S2 cells

Row | Binder | binding result [1] | binding result [2]
1 | B1 | no binding | 
2 | Drosophila Delta, expressed on cells (ligand, Drosophila melanogaster, UniProt P10041 19-833, looked up, whole, on cells; That entry appears to be only part of Delta, so it was not used for the whole protein on cells; also called Delta expressing cells) QVHSSGSFELRLKYFSNDHGRDNEGRCCSGESDGATGKCLGSCKTRFRVCLKHYQATIDTTSQCTYGDVITPILGENSVNLTDAQRFQNKGFTNPIQFPFSFSWPGTFSLIVEAWHDTNNSGNARTNKLLIQRLLVQQVLEVSSEWKTNKSESQYTSLEYDFRVTCDLNYYGSGCAKFCRPRDDSFGHSTCSETGEIICLTGWQGDYCHIPKCAKGCEHGHCDKPNQCVCQLGWKGALCNECVLEPNCIHGTCNKPWTCICNEGWGGLYCNQDLNYCTNHRPCKNGGTCFNTGEGLYTCKCAPGYSGDDCENEIYSCDADVNPCQNGGTCIDEPHTKTGYKCHCANGWSGKMCEEKVLTCSDKPCHQGICRNVRPGLGSKGQGYQCECPIGYSGPNCDLQLDNCSPNPCINGGSCQPSGKCICPAGFSGTRCETNIDDCLGHQCENGGTCIDMVNQYRCQCVPGFHGTHCSSKVDLCLIRPCANGGTCLNLNNDYQCTCRAGFTGKDCSVDIDECSSGPCHNGGTCMNRVNSFECVCANGFRGKQCDEESYDSVTFDAHQYGATTQARADGLTNAQVVLIAVFSVAMPLVAVIAACVVFCMKRKRKRAQEKDDAEARKQNEQNAVATMHHNGSGVGVALASASLGGKTGSNSGLTFDGGNPNIIKNTWDKSVNNICASAAAAAAAAAAADECLMYGGYVASVADNNNANSDFCVAPLQRAKSQKQLNTDPTLMHRGSPAGSSAKGASGGGPGAAEGKRISVLGEGSYCSQRWPSLAAAGVAGACSSQLMAAASVAGSGAGTAQQQRSVVCGTPHM |  | no binding
